From PMC9482650, “Quantitative fragmentomics allow affinity mapping of interactomes” (Nature Communications, 2022)

T1: HTRA3, P83110
T1 sequence (P83110 354-453, limits assumed, looked up): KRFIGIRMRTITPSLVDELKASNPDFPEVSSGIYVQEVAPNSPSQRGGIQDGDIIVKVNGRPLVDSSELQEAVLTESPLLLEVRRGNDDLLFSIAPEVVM

T2: TX1BP3, O14907
T2 sequence (O14907 10-122, limits assumed, looked up): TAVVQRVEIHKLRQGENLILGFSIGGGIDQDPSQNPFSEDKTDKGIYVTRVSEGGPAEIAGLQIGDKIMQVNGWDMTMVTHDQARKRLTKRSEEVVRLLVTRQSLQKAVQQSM

T3: ARHGEF11, O15085
T3 sequence (O15085 42-136, limits assumed, looked up): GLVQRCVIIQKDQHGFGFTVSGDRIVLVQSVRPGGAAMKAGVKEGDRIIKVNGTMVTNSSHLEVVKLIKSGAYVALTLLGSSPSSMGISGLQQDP

T4: PDZD2_2, O15018
T4 sequence (O15018 329-429, limits assumed, looked up): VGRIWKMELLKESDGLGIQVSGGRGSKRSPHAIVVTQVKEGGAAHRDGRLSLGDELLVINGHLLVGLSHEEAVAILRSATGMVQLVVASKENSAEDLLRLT

T5: LNX2_3, Q8N448
T5 sequence (Q8N448 463-564, limits assumed, looked up): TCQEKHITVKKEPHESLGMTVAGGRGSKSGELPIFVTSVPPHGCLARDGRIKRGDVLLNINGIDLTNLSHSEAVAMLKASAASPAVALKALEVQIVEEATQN

T6: DLG3_1, Q92796
T6 sequence (Q92796 125-227, limits assumed, looked up): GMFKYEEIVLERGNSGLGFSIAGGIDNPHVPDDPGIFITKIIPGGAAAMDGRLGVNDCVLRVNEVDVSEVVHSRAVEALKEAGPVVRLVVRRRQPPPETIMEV

T7: SNTA1, Q13424
T7 sequence (Q13424 82-180, limits assumed, looked up): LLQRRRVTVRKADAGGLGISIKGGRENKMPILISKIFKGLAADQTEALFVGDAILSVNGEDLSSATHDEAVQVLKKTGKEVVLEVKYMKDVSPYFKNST

T8: LIN7C, Q9NUP9
T8 sequence (Q9NUP9 88-185, limits assumed, looked up): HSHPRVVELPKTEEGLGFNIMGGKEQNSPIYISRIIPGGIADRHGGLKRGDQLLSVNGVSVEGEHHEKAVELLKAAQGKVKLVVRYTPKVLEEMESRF

T9: PARD3B_1, Q8TEW8
T9 sequence (Q8TEW8 196-299, limits assumed, looked up): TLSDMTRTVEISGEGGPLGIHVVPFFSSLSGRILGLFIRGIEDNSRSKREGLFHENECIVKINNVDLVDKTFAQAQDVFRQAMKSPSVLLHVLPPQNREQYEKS

T10: MPDZ_5, O75970
T10 sequence (O75970 695-796, limits assumed, looked up): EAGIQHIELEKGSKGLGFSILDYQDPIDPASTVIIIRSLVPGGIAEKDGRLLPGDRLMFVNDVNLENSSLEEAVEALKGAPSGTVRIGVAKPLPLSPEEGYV

T11: DFNB31_2, Q9P202
T11 sequence (Q9P202 274-371, limits assumed, looked up): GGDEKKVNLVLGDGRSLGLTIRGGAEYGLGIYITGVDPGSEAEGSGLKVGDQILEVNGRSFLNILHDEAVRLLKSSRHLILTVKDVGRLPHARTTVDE

T12: GRIP1_7, Q9Y3R0
T12 sequence (Q9Y3R0 999-1096, limits assumed, looked up): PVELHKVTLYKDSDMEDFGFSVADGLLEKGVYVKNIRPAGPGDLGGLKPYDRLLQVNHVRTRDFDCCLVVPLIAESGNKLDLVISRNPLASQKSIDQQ


Columns and labels:
Experiment in all cases: holdup assay
Design in all cases: key: below the threshold = too weak to quantify, mostly under pKd 3.1 to 4
Conditions in all cases: plain residues with an end cap or a label only (N-terminal biotin on a linker: ado-ado)
[1] = biological target: T1, HTRA3, P83110
[2] = biological target: FRMPD4, Q14CM0
[3] = biological target: T2, TX1BP3, O14907
[4] = biological target: NHERF2_2, Q15599
[5] = biological target: GOPC, Q9HD26
[6] = biological target: T3, ARHGEF11, O15085
[7] = biological target: SCRIB_2, Q14160
[8] = biological target: T4, PDZD2_2, O15018
[9] = biological target: T5, LNX2_3, Q8N448
[10] = biological target: T6, DLG3_1, Q92796
[11] = biological target: T7, SNTA1, Q13424
[12] = biological target: GORASP2, Q9H8Y8
[13] = biological target: GRID2IP_2, A4D2P6
[14] = biological target: T8, LIN7C, Q9NUP9
[15] = biological target: T9, PARD3B_1, Q8TEW8
[16] = biological target: Inadl_5, Q8NI35
[17] = biological target: FRMPD2_2, Q68DX3
[18] = biological target: TJP1_2, Q07157
[19] = biological target: Inadl_1, Q8NI35
[20] = biological target: T10, MPDZ_5, O75970
[21] = biological target: LAP2, Q96RT1
[22] = biological target: T11, DFNB31_2, Q9P202
[23] = biological target: Inadl_3, Q8NI35
[24] = biological target: T12, GRIP1_7, Q9Y3R0

Inadl_1, Q8NI35, sequence (Q8NI35 113-229): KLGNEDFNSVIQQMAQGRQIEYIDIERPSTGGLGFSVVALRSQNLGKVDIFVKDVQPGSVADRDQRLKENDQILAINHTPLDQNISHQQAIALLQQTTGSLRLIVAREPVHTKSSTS
TJP1_2, Q07157, sequence (Q07157 181-274): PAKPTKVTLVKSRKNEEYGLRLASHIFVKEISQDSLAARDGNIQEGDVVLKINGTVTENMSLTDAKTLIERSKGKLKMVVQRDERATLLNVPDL
FRMPD4, Q14CM0, sequence (Q14CM0 67-160): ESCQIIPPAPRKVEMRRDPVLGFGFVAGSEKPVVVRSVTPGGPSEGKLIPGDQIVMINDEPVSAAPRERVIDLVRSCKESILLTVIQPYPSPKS
Inadl_3, Q8NI35, sequence (Q8NI35 359-469): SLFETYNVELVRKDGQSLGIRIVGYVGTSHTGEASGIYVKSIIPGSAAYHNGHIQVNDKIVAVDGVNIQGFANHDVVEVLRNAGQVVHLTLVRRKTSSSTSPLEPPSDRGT
FRMPD2_2, Q68DX3, sequence (Q68DX3 944-1038): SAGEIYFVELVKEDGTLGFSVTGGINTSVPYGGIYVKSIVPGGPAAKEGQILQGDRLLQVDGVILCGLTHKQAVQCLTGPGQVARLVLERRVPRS
SCRIB_2, Q14160, sequence (Q14160 857-960): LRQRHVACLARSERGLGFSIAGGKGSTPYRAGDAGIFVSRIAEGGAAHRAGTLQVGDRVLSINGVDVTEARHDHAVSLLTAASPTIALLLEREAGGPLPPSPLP
GRID2IP_2, A4D2P6, sequence (A4D2P6 272-370): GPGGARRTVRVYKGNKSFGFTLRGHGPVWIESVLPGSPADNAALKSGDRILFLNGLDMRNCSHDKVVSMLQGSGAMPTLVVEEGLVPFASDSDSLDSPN
Inadl_5, Q8NI35, sequence (Q8NI35 673-780): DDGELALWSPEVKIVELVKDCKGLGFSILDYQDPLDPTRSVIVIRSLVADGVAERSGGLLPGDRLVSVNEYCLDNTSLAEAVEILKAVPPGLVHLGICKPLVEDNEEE
NHERF2_2, Q15599, sequence (Q15599 142-238): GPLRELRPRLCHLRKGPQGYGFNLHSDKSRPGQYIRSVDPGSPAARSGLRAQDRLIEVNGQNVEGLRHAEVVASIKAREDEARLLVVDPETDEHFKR
LAP2, Q96RT1, sequence (Q96RT1 other isoform, or with tags, fused parts or gaps): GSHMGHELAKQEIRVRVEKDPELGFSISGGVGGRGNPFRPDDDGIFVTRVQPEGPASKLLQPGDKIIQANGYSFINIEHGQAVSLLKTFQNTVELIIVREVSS

Binder | pKd [1] | pKd [2] | pKd [3] | pKd [4] | pKd [5] | pKd [6] | pKd [7] | pKd [8] | pKd [9] | pKd [10] | pKd [11] | pKd [12] | pKd [13] | pKd [14] | pKd [15] | pKd [16] | pKd [17] | pKd [18] | pKd [19] | pKd [20] | further results
ADEMICITTL [CACNA1D, Q01668] | below the threshold | 3.97 | 3.87 | 4.63 | 4.88 | 5.77 | 3.88 | 3.95 | below the threshold | 3.56 | 4.42 | 4.05 | 4.94 | below the threshold | 4.84 | below the threshold | 3.86 | below the threshold | 4.33 | below the threshold | pKd [21]: 3.66; pKd [22]: below the threshold; pKd [23]: 4.53; pKd [24]: below the threshold
SGDGKTSVWI [GJC1, P36383] | 5.8 | below the threshold | below the threshold | 3.98 | below the threshold | 3.61 | below the threshold | 5.57 | below the threshold | below the threshold | below the threshold | 5.03 | 4.33 | below the threshold | 4.77 | 3.55 | below the threshold | 5 | 4.03 | below the threshold | pKd [21]: 3.81; pKd [22]: below the threshold; pKd [23]: 3.69; pKd [24]: below the threshold
TKDKVQETQI [LRRC4, Q9HBW1] | below the threshold | 3.57 | 4.28 | 4.11 | 4.47 | 3.73 | 4.41 | 4.23 | below the threshold | 3.81 | 4.88 | 3.57 | 4.17 | 3.98 | 3.76 | below the threshold | 3.82 | 3.64 | below the threshold | below the threshold | pKd [21]: 3.54; pKd [22]: 3.71; pKd [23]: 3.56; pKd [24]: below the threshold

More lines, main results first:

pKd [1] | pKd [2] | pKd [3] | pKd [4] | pKd [5] | pKd [6] | pKd [7] | pKd [8] | pKd [9] | pKd [10] | pKd [11] | pKd [12] | pKd [13] | pKd [14] | pKd [15] | pKd [16] | pKd [17] | pKd [18] | pKd [19] | pKd [20] | Binder | further results
below the threshold | below the threshold | below the threshold | below the threshold | below the threshold | below the threshold | below the threshold | below the threshold | below the threshold | below the threshold | below the threshold | 4.31 | below the threshold | below the threshold | below the threshold | below the threshold | below the threshold | below the threshold | below the threshold | below the threshold | MLPANYVEAI [NEB, P20929] | pKd [21]: below the threshold; pKd [22]: below the threshold; pKd [23]: below the threshold; pKd [24]: below the threshold
below the threshold | below the threshold | 3.54 | 3.47 | below the threshold | 3.48 | below the threshold | 4.45 | below the threshold | below the threshold | 3.97 | below the threshold | below the threshold | below the threshold | below the threshold | below the threshold | below the threshold | below the threshold | below the threshold | below the threshold | PGKKPEDSRV [SLCO2B1, O94956] | pKd [21]: 3.52; pKd [22]: below the threshold; pKd [23]: below the threshold; pKd [24]: below the threshold
below the threshold | 3.52 | 4.12 | 3.69 | 3.73 | 4 | 3.68 | 4.97 | below the threshold | 3.48 | 4.09 | 3.49 | 3.65 | 4.05 | below the threshold | below the threshold | 4.11 | below the threshold | below the threshold | below the threshold | EPAKETTTNV [SLC2A3, P11169] | pKd [21]: 3.64; pKd [22]: below the threshold; pKd [23]: below the threshold; pKd [24]: below the threshold
